Source: PMC2756588

T1: Cyk3, Q07533
T1 sequence (Q07533 1-83, looked up): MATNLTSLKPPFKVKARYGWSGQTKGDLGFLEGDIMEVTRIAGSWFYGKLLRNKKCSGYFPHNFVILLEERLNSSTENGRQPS

T2: Pin3, Q06449
T2 sequence (Q06449 53-122, looked up): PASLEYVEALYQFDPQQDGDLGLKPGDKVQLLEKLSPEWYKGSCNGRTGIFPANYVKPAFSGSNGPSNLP

T3: Bzz1-2, P38822
T3 sequence (P38822 568-633, looked up): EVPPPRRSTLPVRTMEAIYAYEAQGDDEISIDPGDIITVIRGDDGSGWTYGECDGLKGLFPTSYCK

T4: Bud14, P27637
T4 sequence (P27637 247-328, looked up): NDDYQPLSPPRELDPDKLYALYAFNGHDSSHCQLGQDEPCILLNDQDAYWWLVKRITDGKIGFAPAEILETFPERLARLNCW

T5: Lsb1, P53281
T5 sequence (P53281 45-122, looked up): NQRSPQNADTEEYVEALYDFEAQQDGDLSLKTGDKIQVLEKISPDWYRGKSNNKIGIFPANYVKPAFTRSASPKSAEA

T6: Abp1, P15891
T6 sequence (P15891 535-592, looked up): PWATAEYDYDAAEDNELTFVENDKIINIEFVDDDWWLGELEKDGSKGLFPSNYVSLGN

T7: Bbc1, P47068
T7 sequence (P47068 1-78, looked up): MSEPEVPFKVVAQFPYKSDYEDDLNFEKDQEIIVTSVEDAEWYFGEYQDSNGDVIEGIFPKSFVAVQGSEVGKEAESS

T8: Lsb3, P43603
T8 sequence (P43603 385-451, looked up): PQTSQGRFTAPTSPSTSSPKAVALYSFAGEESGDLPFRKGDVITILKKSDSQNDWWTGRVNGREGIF

T9: Myo5, Q04439
T9 sequence (Q04439 1072-1160, looked up): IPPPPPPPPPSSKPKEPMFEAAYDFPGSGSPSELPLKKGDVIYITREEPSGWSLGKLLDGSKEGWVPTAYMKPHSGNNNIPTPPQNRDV

T10: Boi2, P39969
T10 sequence (P39969 32-116, looked up): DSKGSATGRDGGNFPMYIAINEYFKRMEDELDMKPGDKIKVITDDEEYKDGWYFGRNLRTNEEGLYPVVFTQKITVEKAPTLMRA

T11: Fus1, P11710
T11 sequence (P11710 432-512, looked up): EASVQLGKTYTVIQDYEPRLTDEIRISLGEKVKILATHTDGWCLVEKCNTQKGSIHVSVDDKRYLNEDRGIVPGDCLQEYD

T12: Sla1-3, P32790
T12 sequence (P32790 344-424, looked up): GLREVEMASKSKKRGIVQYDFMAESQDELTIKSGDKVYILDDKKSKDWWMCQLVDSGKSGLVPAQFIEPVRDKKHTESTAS

T13: Cdc25, P04821
T13 sequence (P04821 50-136, looked up): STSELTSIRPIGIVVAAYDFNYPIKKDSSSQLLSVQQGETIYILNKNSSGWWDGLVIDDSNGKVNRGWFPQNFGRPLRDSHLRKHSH

T14: Lsb4, P32793
T14 sequence (P32793 402-468, looked up): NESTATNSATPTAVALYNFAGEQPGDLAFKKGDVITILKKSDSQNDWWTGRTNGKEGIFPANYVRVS

T15: Hof1, Q05080
T15 sequence (Q05080 590-669, looked up): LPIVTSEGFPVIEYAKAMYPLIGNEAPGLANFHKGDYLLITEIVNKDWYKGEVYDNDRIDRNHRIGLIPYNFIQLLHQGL

T16: Nbp2, Q12163
T16 sequence (Q12163 103-180, looked up): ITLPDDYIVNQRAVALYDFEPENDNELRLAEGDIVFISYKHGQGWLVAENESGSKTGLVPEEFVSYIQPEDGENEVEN

T17: Pex13, P80667
T17 sequence (P80667 295-386, looked up): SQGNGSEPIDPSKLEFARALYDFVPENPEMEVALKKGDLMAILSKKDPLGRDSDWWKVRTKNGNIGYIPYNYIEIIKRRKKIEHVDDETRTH

T18: Boi1, P38041
T18 sequence (P38041 1-86, looked up): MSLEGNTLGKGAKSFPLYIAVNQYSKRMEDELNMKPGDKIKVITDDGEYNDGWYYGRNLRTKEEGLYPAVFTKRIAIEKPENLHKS

T19: Sla1-2, P32790
T19 sequence (P32790 60-140, looked up): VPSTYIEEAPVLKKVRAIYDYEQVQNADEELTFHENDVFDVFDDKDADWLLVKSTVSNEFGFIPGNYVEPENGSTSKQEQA

T20: Hse1, P38753
T20 sequence (P38753 208-285, looked up): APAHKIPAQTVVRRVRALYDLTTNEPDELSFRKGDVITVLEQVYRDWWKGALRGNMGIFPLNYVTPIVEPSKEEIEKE

T21: Bzz1-1, P38822
T21 sequence (P38822 478-572, looked up): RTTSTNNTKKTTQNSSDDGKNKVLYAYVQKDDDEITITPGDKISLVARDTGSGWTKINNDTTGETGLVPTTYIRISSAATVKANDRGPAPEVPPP


What was measured:
Assay in all cases: SPOT array
Cyk3, Q07533 = target: T1, Cyk3, Q07533; settings: median of control spots 1451
Pin3, Q06449 = target: T2, Pin3, Q06449; settings: median of control spots 2171
Bzz1-2, P38822 = target: T3, Bzz1-2, P38822; settings: median of control spots 4538
Bud14, P27637 = target: T4, Bud14, P27637; settings: median of control spots 956
Lsb1, P53281 = target: T5, Lsb1, P53281; settings: median of control spots 388
Abp1, P15891 = target: T6, Abp1, P15891; settings: median of control spots 935
Bbc1, P47068 = target: T7, Bbc1, P47068; settings: median of control spots 796
Lsb3, P43603 = target: T8, Lsb3, P43603; settings: median of control spots 406
Rvs167, P39743 = settings: median of control spots 2707
Myo5, Q04439 = target: T9, Myo5, Q04439; settings: median of control spots 471
Boi2, P39969 = target: T10, Boi2, P39969; settings: median of control spots 1161
Fus1, P11710 = target: T11, Fus1, P11710; settings: median of control spots 1200
Sla1-3, P32790 = target: T12, Sla1-3, P32790; settings: median of control spots 5475
Sho1, P40073 = settings: median of control spots 1148
Cdc25, P04821 = target: T13, Cdc25, P04821; settings: median of control spots 969
Lsb4, P32793 = target: T14, Lsb4, P32793; settings: median of control spots 397
Hof1, Q05080 = target: T15, Hof1, Q05080; settings: median of control spots 4086
GST = settings: median of control spots 978
Nbp2, Q12163 = target: T16, Nbp2, Q12163; settings: median of control spots 357
Bem1-2, P29366 = settings: median of control spots 4347
Pex13, P80667 = target: T17, Pex13, P80667; settings: median of control spots 1341
Boi1, P38041 = target: T18, Boi1, P38041; settings: median of control spots 1162
Sla1-2, P32790 = target: T19, Sla1-2, P32790; settings: median of control spots 712
Bem1-1, P29366 = settings: median of control spots 4282
Myo3, P36006 = settings: median of control spots 468
Hse1, P38753 = target: T20, Hse1, P38753; settings: median of control spots 1727
Bzz1-1, P38822 = target: T21, Bzz1-1, P38822; settings: median of control spots 4446

Sequence of Rvs167, P39743 (P39743 419-482): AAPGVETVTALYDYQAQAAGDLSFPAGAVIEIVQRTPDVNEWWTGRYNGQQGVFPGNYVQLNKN
Sequence of Sho1, P40073 (P40073 287-367): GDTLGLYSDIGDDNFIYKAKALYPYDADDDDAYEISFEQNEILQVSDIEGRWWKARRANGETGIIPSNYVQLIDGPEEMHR
Sequence of Bem1-2, P29366 (P29366 139-227): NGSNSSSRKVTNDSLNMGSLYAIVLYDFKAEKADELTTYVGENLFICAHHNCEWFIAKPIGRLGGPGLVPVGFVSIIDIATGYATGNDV
Sequence of Bem1-1, P29366 (P29366 55-141): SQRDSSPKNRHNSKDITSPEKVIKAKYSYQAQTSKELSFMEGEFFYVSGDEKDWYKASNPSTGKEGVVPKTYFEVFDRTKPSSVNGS

SPOT intensity (Cyk3, Q07533) | SPOT intensity (Pin3, Q06449) | SPOT intensity (Bzz1-2, P38822) | SPOT intensity (Bud14, P27637) | SPOT intensity (Lsb1, P53281) | SPOT intensity (Abp1, P15891) | SPOT intensity (Bbc1, P47068) | SPOT intensity (Lsb3, P43603) | SPOT intensity (Rvs167, P39743) | SPOT intensity (Myo5, Q04439) | SPOT intensity (Boi2, P39969) | SPOT intensity (Fus1, P11710) | SPOT intensity (Sla1-3, P32790) | SPOT intensity (Sho1, P40073) | SPOT intensity (Cdc25, P04821) | SPOT intensity (Lsb4, P32793) | SPOT intensity (Hof1, Q05080) | SPOT intensity (GST) | SPOT intensity (Nbp2, Q12163) | SPOT intensity (Bem1-2, P29366) | Binder | other results
0 | 29 | 3 | 0 | 1120 | 0 | 0 | 0 | 0 | 0 | 0 | 0 | 0 | 0 | 2 | 0 | 0 | 3 | 0 | 0 | VYTRTAFQIPGDDKI | SPOT intensity (Pex13, P80667): 0; SPOT intensity (Boi1, P38041): 0; SPOT intensity (Sla1-2, P32790): 1; SPOT intensity (Bem1-1, P29366): 0; SPOT intensity (Myo3, P36006): 0; SPOT intensity (Hse1, P38753): 0; SPOT intensity (Bzz1-1, P38822): 0
2 | 28 | 0 | 0 | 176 | 14 | 109 | 242 | 157 | 25 | 0 | 0 | 0 | 0 | 0 | 513 | 2750 | 1 | 0 | 2 | NSVPIMPTLPPRPYI | SPOT intensity (Pex13, P80667): 172; SPOT intensity (Boi1, P38041): 0; SPOT intensity (Sla1-2, P32790): 0; SPOT intensity (Bem1-1, P29366): 0; SPOT intensity (Myo3, P36006): 26; SPOT intensity (Hse1, P38753): 368; SPOT intensity (Bzz1-1, P38822): 0
0 | 7 | 9 | 0 | 39 | 133 | 151 | 102 | 6 | 6 | 1280 | 0 | 6 | 0 | 0 | 325 | 9 | 1 | 0 | 6 | PVLPPPRSPNRPTLS | SPOT intensity (Pex13, P80667): 86; SPOT intensity (Boi1, P38041): 849; SPOT intensity (Sla1-2, P32790): 442; SPOT intensity (Bem1-1, P29366): 1; SPOT intensity (Myo3, P36006): 22; SPOT intensity (Hse1, P38753): 0; SPOT intensity (Bzz1-1, P38822): 8

The next lines start with the binder.

Binder | SPOT intensity (Cyk3, Q07533) | SPOT intensity (Pin3, Q06449) | SPOT intensity (Bzz1-2, P38822) | SPOT intensity (Bud14, P27637) | SPOT intensity (Lsb1, P53281) | SPOT intensity (Abp1, P15891) | SPOT intensity (Bbc1, P47068) | SPOT intensity (Lsb3, P43603) | SPOT intensity (Rvs167, P39743) | SPOT intensity (Myo5, Q04439) | SPOT intensity (Boi2, P39969) | SPOT intensity (Fus1, P11710) | SPOT intensity (Sla1-3, P32790) | SPOT intensity (Sho1, P40073) | SPOT intensity (Cdc25, P04821) | SPOT intensity (Lsb4, P32793) | SPOT intensity (Hof1, Q05080) | SPOT intensity (GST) | SPOT intensity (Nbp2, Q12163) | SPOT intensity (Bem1-2, P29366) | other results
LFMKGTPEFPKSGFS | 0 | 40 | 0 | 1 | 67 | 85 | 1 | 8 | 1 | 48 | 0 | 0 | 0 | 17 | 0 | 50 | 0 | 0 | 5 | 0 | SPOT intensity (Pex13, P80667): 211; SPOT intensity (Boi1, P38041): 0; SPOT intensity (Sla1-2, P32790): 5; SPOT intensity (Bem1-1, P29366): 0; SPOT intensity (Myo3, P36006): 54; SPOT intensity (Hse1, P38753): 2; SPOT intensity (Bzz1-1, P38822): 0
LYKRKPILLPDPKPL | 0 | 7 | 0 | 1 | 1210 | 43 | 2 | 0 | 0 | 1 | 0 | 0 | 0 | 15 | 0 | 0 | 0 | 2 | 1 | 0 | SPOT intensity (Pex13, P80667): 1; SPOT intensity (Boi1, P38041): 0; SPOT intensity (Sla1-2, P32790): 0; SPOT intensity (Bem1-1, P29366): 0; SPOT intensity (Myo3, P36006): 0; SPOT intensity (Hse1, P38753): 2; SPOT intensity (Bzz1-1, P38822): 0
PSRRAPLQLPQLVNK | 0 | 5 | 0 | 0 | 313 | 45 | 12 | 0 | 0 | 0 | 0 | 0 | 0 | 17 | 0 | 2 | 0 | 1 | 0 | 0 | SPOT intensity (Pex13, P80667): 1; SPOT intensity (Boi1, P38041): 0; SPOT intensity (Sla1-2, P32790): 0; SPOT intensity (Bem1-1, P29366): 2; SPOT intensity (Myo3, P36006): 0; SPOT intensity (Hse1, P38753): 0; SPOT intensity (Bzz1-1, P38822): 0
